Measured values taken from patent publication US7576177B2, “Hsp peptides and analogs for modulation of immune responses via antigen presenting cells” (Andromeda Biotech Ltd., priority 2002, dated 2009).

Legend:
[1] = test system: BALB/c DO.11.10 bone marrow cells cultured for dendritic cells, cocultured with DO.11.10 T cells; test: Education of mouse dendritic cells and stimulation of T-cells, cytokine content of supernatant; assay type: cell-based; details: 0.3 nM Ova peptide
Protocol: Whelan et al. (J. Immunol 164, 6453-6460, 2000) addressed the problem in mice by an experiment in which mouse bone marrow cells were grown for 6 days in culture with GM-CSF to give immature dendritic cells. These dendritic cells were then incubated overnight with LPS (known to drive cells to DC1) or with a nematode antigen. The reason for the choice of nematode antigen was that injection of this antigen in vivo gives rise to a Th2 response in animals. After this so-called “education” of the dendritic cells, they were washed and subsequently incubated with naive T cells in the presence of antigenic stimulus. The experiment was possible because of the use of transgenic mice in which all the T cells respond to the same peptide (OVA323-339) which absolves the system from any question of bias of the T cell response at the level of the T cells. Any bias should be a consequence of the “education” of the dendritic cells. After three days of incubation the cytokine responses produced by the T cells, were measured by ELISA. […] In contrast, nematode antigen incubation gave rise to more IL-4 (Th2) than did controls while the LPS incubation inhibited the IL4 response. Therefore, the nematode antigen was said to drive cells to DC2. A similar method was used for testing the compounds of the present invention: • 1. Bone marrow cells were extracted from the leg bones of DO.11.10 mice transgenic for the TcR. All cells from these mice respond to the OVA peptide ([…]). • 2. Bone marrow cells were plated at 10^6 cells/ml in 100 mm diameter tissue culture petri dishes in Iscove's medium supplemented with 10% FCS, […], 1 mM sodium pyruvate, penicillin/streptomycin (according to manufacturer's recommendations), non-essential amino acids, 50 μM β-mercaptoethanol and 10 ng/ml mGM-CSF. • 3. After 4 days, the medium was carefully removed and replaced with fresh medium • 4. After 6 days, the non-adherent cells were harvested and used as immature dendritic cells • 5. The immature dendritic cells are plated at 1×10^6 cells/ml, 1 ml/well in 24 well plates in the above medium with various reagents added at various concentrations and incubated overnight. This is the stage in which the dendritic cells are “educated” • 6. The next day the cells were harvested and washed 3 times then resuspended at 5×10^4 cells/ml in 1 ml of the above medium but without the addition of GM-CSF to be cocultured with T cells • 7. […] 5×10^5 T cells were cultured with the dendritic cells from step 6 in the presence of various concentrations of the OVA peptide (0, 0.3 nM, 3 nM and 30 nM). • 9. After 3 days PMA (50 ng/ml) and ionomycin (500 ng/ml) were added to further stimulate the cells. • 10. The next day the cell supernatants were collected and assayed for cytokine content (Interferon γ, IL4, IL-10 and IL-12).
The compound was tested for stimulation of DO.11.10 bone marrow cells according to the assay described above (Production and education of mouse dendritic cells and stimulation of T-cells).
BALB/c DO.11.10 bone marrow cells were cultured for dendritic cells and then stimulated with LPS 1 μg/ml, LPS 10 μg/ml, hsp60 3 μg/ml, hsp60 10 μg/ml, p277 5 μg/ml and p277 50 μg/ml. The cells were then transferred to wells with T cells from fresh BALB/c DO.11.10 mice and stimulated with OVA peptide at different concentrations (0, 0.3 nM, 3 nM, 30 nM). Supernatant was collected after 48 hours for assay. 30 μl was taken for IFN, 40 μl for IL4 and IL-10 and 50 μl for IL-12 assays. The results are presented in the following tables, as amount of cytokine (pg/ml), and in FIG. 1.

[2] = test system: peripheral blood monocytes; test: Peripheral blood monocytes: IP-10 after direct stimulation or preincubation then LPS; assay type: cell-based, human; details: peripheral blood monocytes, no preincubation, FIG. 4
Protocol: Peripheral blood mononuclear cells were prepared from leucocytes of blood lots obtained from the blood bank. The cells were plated at a concentration of 4×10^6 cell/ml/well in 24 well tissue culture dishes in medium containing 10% fetal calf serum. The cells were allowed to adhere for 2 hours at 37° C. After this time, non-adherent cells were washed away and the adherent cells incubated in fresh medium containing 10% human AB serum for 6-8 days, changing the medium after 4 days. These culture conditions were reported to give rise to monocytes.
For stimulation the medium was replaced with medium without serum. For preincubation, the cells were exposed overnight to the tested compounds at various concentrations and then LPS was added. The supernatant was collected after a further overnight incubation and tested for various cytokines by ELISA assays.

[3] = test system: peripheral blood mononuclear cells cultured with GM-CSF and IL4 (dendritic cells); test: Peripheral blood derived dendritic cells: secreted cytokines (IP-10, IL-8) and cell surface antigens (CD83, CD86); assay type: cell-based, human; details: overnight
Protocol: The effect of the compositions of the present invention on peripheral blood derived dendritic cells, was tested according to a protocol described by Re, F. and Strominger, J. L. 2001. Toll-like receptor 2 (Tlr2) and Tlr4 differentially activate human dendritic cells. (J Biol Chem 276: 37692-9). According to this method immature dendritic cells derived from human peripheral blood are used. The outcome after incubating the cells with tested molecules is different if the stimulation is through the Toll 4 receptor or the Toll 2 receptor. According to the authors, Toll 2 signaling by stimulation with zymosan is associated with a Th2 kind of response (exemplified by IL-8) and Toll 4 signaling, such as obtained by LPS stimulation (exemplified by IP-10), with a Th1 type of response. The compositions of the present invention were tested using a similar assay system in order to check which stimulation type they induce. […] The increase in CD86 expression after exposure of APCs to Hsps or Hsp derived peptides is important since CD86 (B7.2) is an essential component of the immunological synapse formed between T cells and APC. This synapse consists of CD80 and CD86 on the side of the APC and CD28 and CD40 on the side of the T cell. T cell recognition of peptide on APC without the concurrent expression of CD86 gives rise to anergy instead of a T cell response. Therefore in order to produce a response all components must be present.
The assay was based on the protocol described by Re, F. and Strominger, J. L. 2001. Toll-like receptor 2 (Tlr2) and Tlr4 differentially activate human dendritic cells. (J. Biol Chem 276: 37692-9).
Peripheral blood mononuclear cells were prepared from leucocytes from blood lots obtained from the blood bank. The cells were plated at 10^8 cells/10 ml/Petri dish in RPMI medium including 10% FCS and allowed to adhere at 37° C. for 2 hours. At the end of this time, the non-adherent cells were washed off the plates with PBS and the adherent cells resuspended in fresh medium as before. […]

[4] = dendritic cells educated with 3 μg/ml
[5] = dendritic cells educated with 10 μg/ml

B1: hsp60: heat shock protein 60, mitochondrial chaperone, used as stimulus (protein)
chain: MLRLPTVFRQMRPVSRVLAPHLTRAYAKDVKFGADARALMLQGVDLLADAVAVTMGPKGRTVIIEQGWGSPKVTKDGVTVAKSIDLKDKYKNIGAKLVQDVANNTNEEAGDGTTTATVLARSIAKEGFEKISKGANPVEIRRGVMLAVDAVIAELKKQSKPVTTPEEIAQVATISANGDKEIGNIISDAMKKVGRKGVITVKDGKTLNDELEIIEGMKFDRGYISPYFINTSKGQKCEFQDAYVLLSEKKISSIQSIVPALEIANAHRKPLVIIAEDVDGEALSTLVLNRLKVGLQVVAVKAPGFGDNRKNQLKDMAIATGGAVFGEEGLTLNLEDVQPHDLGKVGEVIVTKDDAMLLKGKGDKAQIEKRIQEIIEQLDVTTSEYEKEKLNERLAKLSDGVAVLKVGGTSDVEVNEKKDRVTDALNATRAAVEEGIVLGGGCALLRCIPALDSLTPANEDQKIGIEIIKRTLKIPAMTIAKNAGVEGSLIVEKIMQSSSEVGYDAMAGDFVNMVEKGIIDPTKVVRTALLDAAGVASLLTTAEVVVTEIPKEEKDPGMGAMGGMGGGMGGGMF
modifications: Homo sapien
notes: heat shock protein 60, mitochondrial chaperone, used as stimulus
With B1 the “IFN secretion of T cells” value [1, 4] was 447.78 pg/mL, the “IL-4 secretion of T cells” value [1, 4] was 35.96 pg/mL and the “IL-10 secretion of T cells” value [1, 4] was 34.50 pg/mL. For the same molecule, the “IL-12 secretion of T cells” value [1, 4] was 95.00 pg/mL, the “IFN secretion of T cells” value [1, 5] was 480.56 pg/mL and the “IL-4 secretion of T cells” value [1, 5] was 24.29 pg/mL. For the same molecule, the “IL-10 secretion of T cells” value [1, 5] was 80.18 pg/mL, the “IL-12 secretion of T cells” value [1, 5] was 126.25 pg/mL and the “IP-10 after direct stimulation” value [2] was “did not give rise to IP-10”. For the same molecule, the IP-10 ([3]; stimulus 10 ng/ml) was 6 pg/mL, the IP-10 ([3]; stimulus 0.1 μg/ml) was 1 pg/mL and the IP-10 ([3]; stimulus 1 μg/ml) was 31 pg/mL.
